Experiment [1] concerns the target T1, histidine-tagged human Siglec-7 (NovoProtein) (human, UniProt Q9Y286 19-353).
T1 construct: Bought protein; also called recombinant human Siglec-7; recombinant Siglec-7; not shown: histidine tag
Nature of the experiment: BLI (ForteBio), antibody captured; Table 2 experiment; antibody captured on anti-IgG Fc Biosensors, 0-100 nM His-tagged Siglec-7. As for the experimental part: (§1) In this assay, the humanized antibodies were compared directly to S7AB. Briefly, the antibodies were captured on anti-human or anti-mouse IgG Fc Biosensors (Pall ForteBio). Varying concentrations (0-100 nM) of histidine-tagged human Siglec-7 (NovoProtein) were then bound to the captured anti-Siglec-7 surface (200 s association time, 900 s dissociation time). Multi-concentration kinetic analysis was performed using a 1:1 interaction model to extract association and dissociation rate constants (kₐ and kd, respectively) for each antibody. Apparent affinity constants (KD) were calculated from the ratio kd/kₐ.
Background: BLI is a label-free optical method that tracks binding on a fibre tip over time.

In experiment [2] the target is T2, human Siglec-7 on primary human monocyte-derived dendritic cells (human, UniProt Q9Y286 19-467). Nature of the experiment: cell-based or functional assay.
The target of experiment [3] is T1, histidine-tagged human Siglec-7 …. The experiment is described as follows: BLI (ForteBio), antibody captured. The method, then:
as §1

Experiment [4] deals with T2, human Siglec-7 on primary human …. Nature of the experiment: flow cytometry, primary human dendritic cells. As for the experimental part: The 12 humanized antibodies of S7AB were evaluated for binding to primary dendritic cells by flow cytometry. Monocytes were isolated from blood from healthy human donors using the RosetteSep™ monocyte isolation antibody cocktail (StemCell Technologies). The isolated monocytes were differentiated into dendritic cells with 100 ng/mL GM-CSF and 100 ng/mL IL-4 (Peprotech). Dendritic cells were incubated with dilutions of the anti-Siglec-7 antibodies for 30 minutes on ice in the dark, followed by a 30-minute incubation with a fluorescently-conjugated anti-human IgG secondary antibody. Cells were washed twice in FACS buffer (PBS+2% FBS, 2 mM EDTA), and flow cytometry was performed on a BD FACS Canto. Data were analyzed using FlowJo software (Ashland, Oreg.).
(In flow cytometry, cells or beads pass a laser one at a time.)

For experiment [5] the target is unchanged. The experiment is described as follows: cell-based or functional assay. The source holds these as a separate data set.
For experiment [6], the target named is T1, histidine-tagged human Siglec-7 …. Nature of the experiment: BLI, antibody captured. The method in brief:
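Antibodies captured on anti-human or anti-mouse IgG Fc biosensors; His-tagged human Siglec-7 flowed at 0–100 nM (200 s association, 900 s dissociation). ka and kd from 1:1 multi-concentration fit; apparent KD = kd/ka.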

Experiment [7] concerns the target T2, human Siglec-7 on primary human …. Nature of the experiment: cell-based or functional assay. The source holds these as a separate data set.

Numbering of substitutions follows the chain as printed. In names and notes the source's numbering stands. Read-outs that look alike come from different tables or passages of the source.

T1 sequence (Q9Y286 19-353 limits assumed): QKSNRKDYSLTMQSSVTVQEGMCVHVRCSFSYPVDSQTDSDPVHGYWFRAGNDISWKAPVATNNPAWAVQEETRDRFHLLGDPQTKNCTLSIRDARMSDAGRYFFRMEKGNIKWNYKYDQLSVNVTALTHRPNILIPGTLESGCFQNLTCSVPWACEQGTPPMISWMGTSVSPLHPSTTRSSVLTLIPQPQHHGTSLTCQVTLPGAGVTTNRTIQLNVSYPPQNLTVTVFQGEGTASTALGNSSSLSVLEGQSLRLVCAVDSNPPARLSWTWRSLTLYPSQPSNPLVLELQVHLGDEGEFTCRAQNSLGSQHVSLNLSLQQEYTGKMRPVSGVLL
T2 sequence (Q9Y286 19-467): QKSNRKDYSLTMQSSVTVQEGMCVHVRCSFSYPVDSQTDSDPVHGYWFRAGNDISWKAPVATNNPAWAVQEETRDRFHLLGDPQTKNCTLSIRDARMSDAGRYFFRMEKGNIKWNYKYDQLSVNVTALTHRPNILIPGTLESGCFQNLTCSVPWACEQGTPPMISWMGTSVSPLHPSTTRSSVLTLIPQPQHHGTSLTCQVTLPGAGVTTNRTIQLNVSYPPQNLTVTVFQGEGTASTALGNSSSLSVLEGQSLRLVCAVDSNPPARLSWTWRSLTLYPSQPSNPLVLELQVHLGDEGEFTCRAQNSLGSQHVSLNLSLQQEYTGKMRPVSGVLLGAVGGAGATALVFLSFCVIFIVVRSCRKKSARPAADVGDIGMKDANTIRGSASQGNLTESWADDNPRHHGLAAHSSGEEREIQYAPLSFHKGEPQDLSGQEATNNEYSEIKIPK

B1: S7AB-H8 (antibody, V domains shown)
VH: QVQLVQSGAEVKKPGASVKISCKASGYAFTNCWMNWVRQAPGQGLEWIGRIFPGNGHTNYAQKFQGRATLTEDTSTSTAYMELSSLRSEDTAVYYCARDYSDYYFDYWGQGTLVTVSS
VL: DIQMTQSPSSLSASVGDRVTITCRASQDINTYLNWYQQKPGKAPKLLIYYTSRLHSGVPSRFSGSGSGTDYTLTISSLQPEDFATYYCQQGNTLPWTFGQGTKLEIK
notes: also called parental humanized antibody
Turning to B1, binding in experiment [1] was characterised by a dissociation constant (Kd) of 0.86 nM. In experiment [2], the “Fold increase in potency compared to Chimeric Ab” value amounted to 3 fold; the “Maximal downregulation (% Siglec-7 remaining)” value is 18.3%; the “Receptor downregulation, (EC50) (pM)” value is 340 pM. In experiment [3], the koff (in general, the rate constant with which the complex falls apart) amounted to 0.000125 s⁻¹ and the kon (as a rule, the rate constant with which the complex forms) was 145000 M⁻¹ s⁻¹. A half-maximal response in experiment [4] (EC50) required 1.5 nM. In addition, the “Receptor downregulation, (EC50) (pM)” value in experiment [5] is 395 pM. Further, in experiment [6], the Kd (usually a measure of binding affinity in units of concentration) amounted to 1.05 nM, the koff amounted to 0.000174 s⁻¹ and the kon was 166000 M⁻¹ s⁻¹.

B2: S7AB-H8.44 huIgG1 N297A (antibody, V domains shown)
VH: B1 VH with I20V, N31A, C32A, N55L
VL: B1 VL with A25G, T93I
As to B2, in experiment [7], the “Maximal downregulation (% Siglec-7 remaining)” value came to 2.9% and the “Receptor downregulation, (pM, EC50)” value is 68.6 pM.

B3: S7AB-H8.44 huIgG1 LALAPS (antibody, V domains shown)
VH: B1 VH with I20V, N31A, C32A, N55L
VL: B1 VL with A25G, T93I
Consider B3, for which, in experiment [7], the “Maximal downregulation (% Siglec-7 remaining)” value is 2.8% and the “Receptor downregulation, (pM, EC50)” value was 67.3 pM.

B4: S7AB-H9 (antibody, V domains shown)
VH: B1 VH
VL: B1 VL with I2V
With B4, in experiment [3], binding was characterised by a dissociation constant (Kd) of 0.74 nM, the off-rate (koff) stood at 0.000112 s⁻¹ and the kon came out at 150000 M⁻¹ s⁻¹. It took 1.5 nM to reach a half-maximal effect in experiment [4] (EC50). Moreover, in experiment [5], the “Receptor downregulation, (EC50) (pM)” value was determined as 432 pM.

B5: S7AB-H12 (antibody, V domains shown)
VH: B1 VH with V114L
VL: B1 VL with I2V
Turning to B5, in experiment [3], the affinity, expressed as Kd, was 1.01 nM; the off-rate (koff) amounted to 0.000152 s⁻¹; the kon amounted to 150000 M⁻¹ s⁻¹. Moreover, in experiment [4], the concentration for a half-maximal effect (EC50) (commonly the midpoint of the concentration-response curve) came to 5.6 nM. Moreover, in experiment [5], the “Receptor downregulation, (EC50) (pM)” value turned out to be 447 pM.

B6: S7AB-H11 (antibody, V domains shown)
VH: B1 VH with V114L
VL: B1 VL
Consider B6, for which, in experiment [3], binding was put at a Kd of 1.07 nM, the koff worked out at 0.000172 s⁻¹ and the kon was determined as 160000 M⁻¹ s⁻¹. The molecule further showed an EC50 in experiment [4] of 1.2 nM. Besides, the “Receptor downregulation, (EC50) (pM)” value in experiment [5] stood at 411 pM.

Values taken from patent US20210246204A1 (Alector, published 2021).
